Data: PMC3720700, “Structure of the SCAN Domain of Human Paternally Expressed Gene 3 Protein” (PLoS ONE, 2013)

Target: the molecule itself
Assay: SEC; gel filtration of the single purified protein, Superdex 75 16/60 calibrated with molecular weight standards; 50 mM Tris-HCl pH 7.5, 150 mM NaCl

| Protein | stoichiometry N |
| --- | --- |
| SCAN domain of human paternally expressed gene 3 protein (PEG3), amino acids 40-130 (domain or fragment, three non-native residues (Gly-His-Met) left at the N-terminus after TEV digestion; SCAN domain of human PEG3, amino acids 40-130 of UniProt Q9GZU2; theoretical mass of the construct 11,434 Da; Homodimer by gel filtration and in the crystal; The gene was synthetic (GenScript), in a modified pET15b vector; also called PEG3-SCAN; PEG3-SCAN domain; source: E. coli Bl21 (DE3) Gold, purified (HisTrap, …)) GHMTDSEFFHQRFRNLIYVEFVGPRKTLIKLRNLCLDWLQPETRTKEEIIELLVLEQYLTIIPEKLKPWVRAKKPENCEKLVTLLENYKEMYQP | 2 |
| human Siah1 without the RING domain (amino acids 91-282) (domain or fragment, UniProt Q8IUQ4 91-282, looked up, human Siah1 without the RING domain, amino acids 91-282 of UniProt Q8IUQ4 (the results say residues 90-282); theoretical mass of a monomer 21,897 Da; The 15N-labelled form was used in the NMR experiment and the unlabelled form in gel filtration; it says only 'a similar protocol to that for PEG3-SCAN'; also called E3 ubiquitin-protein ligase Siah1; 15N-labeled Siah1; source: E. coli, purified by a …) ANSVLFPCKYASSGCEITLPHTEKADHEELCEFRPYSCPCPGASCKWQGSLDAVMPHLMHQHKSITTLQGEDIVFLATDINLPGAVDWVMMQSCFGFHFMLVLEKQEKYDGHQQFFAIVQLIGTRKQAENFAYRLELNGHRRRLTWEATPRSIHEGIATAIMNSDCLVFDTSIAQLFAENGNLGINVTISMC | 2 |
